Measurements as given in patent US20180155451A1 (published 2018).

T1: FcγRIIa R (human, UniProt P12318 34-217)
T1 construct: extracellular domain; also called FcgRIIa R type; 2aR
T1 sequence (looked up): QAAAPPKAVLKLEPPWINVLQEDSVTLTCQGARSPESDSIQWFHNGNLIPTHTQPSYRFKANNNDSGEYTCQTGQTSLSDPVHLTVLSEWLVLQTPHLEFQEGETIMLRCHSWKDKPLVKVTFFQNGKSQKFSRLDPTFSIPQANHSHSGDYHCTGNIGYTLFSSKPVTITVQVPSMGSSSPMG

B1: GpH7-B3 variant N325_06M/GpL16-k0 (antibody, human IgG1, kappa)
heavy: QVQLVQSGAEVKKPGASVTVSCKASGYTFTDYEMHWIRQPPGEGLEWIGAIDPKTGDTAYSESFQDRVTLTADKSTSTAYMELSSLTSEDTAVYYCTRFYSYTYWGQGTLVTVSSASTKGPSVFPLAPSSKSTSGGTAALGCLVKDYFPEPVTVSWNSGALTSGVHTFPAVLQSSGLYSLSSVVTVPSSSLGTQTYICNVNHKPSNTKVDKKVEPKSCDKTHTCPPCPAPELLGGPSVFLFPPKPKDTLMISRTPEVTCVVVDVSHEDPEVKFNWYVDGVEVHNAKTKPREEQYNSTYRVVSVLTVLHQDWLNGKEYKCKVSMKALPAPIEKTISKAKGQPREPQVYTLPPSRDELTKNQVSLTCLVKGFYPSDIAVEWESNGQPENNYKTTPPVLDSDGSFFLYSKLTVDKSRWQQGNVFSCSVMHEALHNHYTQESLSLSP
light: DIVMTQSPLSLPVTPGEPASISCQASESLVHSNRNTYLHWYLQKPGQSPQLLIYKVSNRFSGVPDRFSGSGSGTDFTLKISRVEAEDVGVYYCSQNTHVPPTFGQGTKVEIERTVAAPSVFIFPPSDEQLKSGTASVVCLLNNFYPREAKVQWKVDNALQSGNSQESVTEQDSKDSTYSLSSTLTLSKADYEKHKVYACEVTHQGLSSPVTKSFNRGEC
notes: also called Ho Ab N325_06M
B2: GpH7-A5/GpH7-B3 variant N325_10E/GpL16-k0 (antibody, human IgG1, kappa)
heavy 1: not shown
heavy 2: not shown
light: B1 light
notes: also called He Ab N325_10E
B3: GpH7-B3 variant G237_02A/GpL16-k0 (antibody, human IgG1, kappa)
heavy: not shown
light: B1 light
notes: also called Ho Ab G237_02A
B4: GpH7-B3 variant G237_06M/GpL16-k0 (antibody, human IgG1, kappa)
heavy: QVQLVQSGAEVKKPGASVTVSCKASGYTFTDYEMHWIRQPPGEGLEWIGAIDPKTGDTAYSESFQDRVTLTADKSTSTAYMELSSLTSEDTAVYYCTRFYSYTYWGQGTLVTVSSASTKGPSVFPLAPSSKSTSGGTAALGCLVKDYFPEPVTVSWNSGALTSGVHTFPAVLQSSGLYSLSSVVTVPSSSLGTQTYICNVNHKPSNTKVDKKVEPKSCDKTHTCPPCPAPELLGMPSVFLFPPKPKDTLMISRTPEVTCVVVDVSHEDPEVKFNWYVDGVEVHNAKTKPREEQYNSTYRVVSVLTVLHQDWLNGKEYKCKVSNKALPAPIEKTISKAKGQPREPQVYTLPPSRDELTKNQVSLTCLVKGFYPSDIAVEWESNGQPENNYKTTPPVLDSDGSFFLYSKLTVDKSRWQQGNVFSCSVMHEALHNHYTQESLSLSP
light: B1 light
notes: also called Ho Ab G237_06M
B5: GpH7-A5/GpH7-B3 variant N325_09D/GpL16-k0 (antibody, human IgG1, kappa)
heavy 1: not shown
heavy 2: not shown
light: B1 light
notes: also called He Ab N325_09D
B6: GpH7-B3 variant G237_08L/GpL16-k0 (antibody, human IgG1, kappa)
heavy: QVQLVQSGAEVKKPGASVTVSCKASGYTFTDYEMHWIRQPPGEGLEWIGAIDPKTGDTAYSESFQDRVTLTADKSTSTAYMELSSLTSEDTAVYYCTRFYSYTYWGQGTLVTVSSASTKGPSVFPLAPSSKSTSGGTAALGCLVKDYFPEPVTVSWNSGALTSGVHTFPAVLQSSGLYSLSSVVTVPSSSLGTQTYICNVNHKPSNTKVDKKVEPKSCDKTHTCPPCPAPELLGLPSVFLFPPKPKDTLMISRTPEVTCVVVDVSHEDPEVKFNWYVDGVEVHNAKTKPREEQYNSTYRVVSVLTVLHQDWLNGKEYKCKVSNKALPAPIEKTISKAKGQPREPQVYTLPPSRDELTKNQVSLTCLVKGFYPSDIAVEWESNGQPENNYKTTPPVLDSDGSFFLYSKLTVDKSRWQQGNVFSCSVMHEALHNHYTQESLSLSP
light: B1 light
notes: also called Ho Ab G237_08L
B7: GpH7-B3 variant G237_09D/GpL16-k0 (antibody, human IgG1, kappa)
heavy: not shown
light: B1 light
notes: also called Ho Ab G237_09D
B8: GpH7-A5/GpH7-B3 variant P238_04F/GpL16-k0 (antibody, human IgG1, kappa)
heavy 1: not shown
heavy 2: not shown
light: B1 light
notes: also called He Ab P238_04F
B9: GpH7-A5/GpH7-B3 variant N325_01G/GpL16-k0 (antibody, human IgG1, kappa)
heavy 1: not shown
heavy 2: not shown
light: B1 light
notes: also called He Ab N325_01G
B10: GpH7-A5/GpH7-B3 variant S267_03V/GpL16-k0 (antibody, human IgG1, kappa)
heavy 1: not shown
heavy 2: not shown
light: B1 light
notes: also called He Ab S267_03V
B11: GpH7-A5/GpH7-B3 variant S239_18N/GpL16-k0 (antibody, human IgG1, kappa)
heavy 1: not shown
heavy 2: not shown
light: B1 light
notes: also called He Ab S239_18N
B12: GpH7-B3 variant A330_11K/GpL16-k0 (antibody, human IgG1, kappa)
heavy: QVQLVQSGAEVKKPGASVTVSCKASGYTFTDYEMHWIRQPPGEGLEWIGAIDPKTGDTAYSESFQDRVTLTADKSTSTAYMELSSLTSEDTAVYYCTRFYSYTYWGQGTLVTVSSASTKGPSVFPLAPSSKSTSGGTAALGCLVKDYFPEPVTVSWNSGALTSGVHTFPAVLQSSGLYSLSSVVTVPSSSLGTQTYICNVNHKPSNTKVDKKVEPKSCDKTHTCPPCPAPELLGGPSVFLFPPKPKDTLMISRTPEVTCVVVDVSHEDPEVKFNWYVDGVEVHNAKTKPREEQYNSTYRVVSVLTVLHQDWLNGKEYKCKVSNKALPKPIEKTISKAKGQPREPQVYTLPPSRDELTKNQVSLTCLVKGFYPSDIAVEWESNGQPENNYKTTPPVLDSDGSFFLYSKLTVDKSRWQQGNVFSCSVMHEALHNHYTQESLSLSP
light: B1 light
notes: also called Ho Ab A330_11K
B13: GpH7-A5/GpH7-B3 variant S239_10E/GpL16-k0 (antibody, human IgG1, kappa)
heavy 1: not shown
heavy 2: not shown
light: B1 light
notes: also called He Ab S239_10E
B14: GpH7-B3 variant E333_04F/GpL16-k0 (antibody, human IgG1, kappa)
heavy: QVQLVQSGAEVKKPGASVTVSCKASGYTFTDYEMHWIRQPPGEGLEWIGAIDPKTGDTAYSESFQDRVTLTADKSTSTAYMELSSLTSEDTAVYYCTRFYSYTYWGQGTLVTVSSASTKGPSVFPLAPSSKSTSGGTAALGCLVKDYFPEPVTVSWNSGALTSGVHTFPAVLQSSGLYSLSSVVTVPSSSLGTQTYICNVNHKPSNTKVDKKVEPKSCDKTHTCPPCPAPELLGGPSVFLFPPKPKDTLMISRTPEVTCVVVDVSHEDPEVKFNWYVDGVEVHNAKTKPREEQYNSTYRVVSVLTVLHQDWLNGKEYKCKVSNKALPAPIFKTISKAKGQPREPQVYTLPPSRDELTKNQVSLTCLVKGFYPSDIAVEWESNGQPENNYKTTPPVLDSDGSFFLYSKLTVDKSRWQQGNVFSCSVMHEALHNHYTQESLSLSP
light: B1 light
notes: also called Ho Ab E333_04F
B15: GpH7-A5/GpH7-B3 variant S239_08L/GpL16-k0 (antibody, human IgG1, kappa)
heavy 1: not shown
heavy 2: not shown
light: B1 light
notes: also called He Ab S239_08L
B16: GpH7-A5/GpH7-B3 variant L328_14T/GpL16-k0 (antibody, human IgG1, kappa)
heavy 1: not shown
heavy 2: not shown
light: B1 light
notes: also called He Ab L328_14T
B17: GpH7-B3 variant G237_18N/GpL16-k0 (antibody, human IgG1, kappa)
heavy: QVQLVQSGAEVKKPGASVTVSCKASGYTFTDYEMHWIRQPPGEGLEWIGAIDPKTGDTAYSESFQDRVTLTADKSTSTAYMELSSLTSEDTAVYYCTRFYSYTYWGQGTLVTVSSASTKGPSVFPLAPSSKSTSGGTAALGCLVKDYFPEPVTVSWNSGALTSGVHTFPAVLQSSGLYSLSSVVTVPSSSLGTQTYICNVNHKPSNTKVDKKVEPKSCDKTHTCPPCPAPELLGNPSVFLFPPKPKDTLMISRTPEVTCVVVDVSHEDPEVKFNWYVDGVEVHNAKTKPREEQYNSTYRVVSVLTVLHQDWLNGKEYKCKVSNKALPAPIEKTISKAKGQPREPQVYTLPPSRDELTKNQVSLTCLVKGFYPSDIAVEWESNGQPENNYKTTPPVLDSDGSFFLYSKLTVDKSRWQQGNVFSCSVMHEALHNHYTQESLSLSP
light: B1 light
notes: also called Ho Ab G237_18N
B18: GpH7-A5/GpH7-B3 variant L328_13S/GpL16-k0 (antibody, human IgG1, kappa)
heavy 1: not shown
heavy 2: not shown
light: B1 light
notes: also called He Ab L328_13S
B19: GpH7-B3 variant A330_15Y/GpL16-k0 (antibody, human IgG1, kappa)
heavy: not shown
light: B1 light
notes: also called Ho Ab A330_15Y
B20: GpH7-A5/GpH7-B3 variant N325_08L/GpL16-k0 (antibody, human IgG1, kappa)
heavy 1: not shown
heavy 2: not shown
light: B1 light
notes: also called He Ab N325_08L
B21: GpH7-B3 variant G236_14T/GpL16-k0 (antibody, human IgG1, kappa)
heavy: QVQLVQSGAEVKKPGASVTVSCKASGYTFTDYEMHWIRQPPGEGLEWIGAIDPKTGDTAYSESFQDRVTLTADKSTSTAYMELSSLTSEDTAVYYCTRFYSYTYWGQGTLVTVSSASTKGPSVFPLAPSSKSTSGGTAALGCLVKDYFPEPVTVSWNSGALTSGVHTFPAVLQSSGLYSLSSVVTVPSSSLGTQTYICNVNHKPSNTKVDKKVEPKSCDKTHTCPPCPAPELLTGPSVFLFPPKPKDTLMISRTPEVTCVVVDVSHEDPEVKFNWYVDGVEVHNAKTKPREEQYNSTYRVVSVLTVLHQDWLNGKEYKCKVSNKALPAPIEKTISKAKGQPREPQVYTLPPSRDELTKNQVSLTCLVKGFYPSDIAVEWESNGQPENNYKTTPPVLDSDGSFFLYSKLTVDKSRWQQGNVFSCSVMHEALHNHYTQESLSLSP
light: B1 light
notes: also called Ho Ab G236_14T
B22: GpH7-B3 variant E333_08L/GpL16-k0 (antibody, human IgG1, kappa)
heavy: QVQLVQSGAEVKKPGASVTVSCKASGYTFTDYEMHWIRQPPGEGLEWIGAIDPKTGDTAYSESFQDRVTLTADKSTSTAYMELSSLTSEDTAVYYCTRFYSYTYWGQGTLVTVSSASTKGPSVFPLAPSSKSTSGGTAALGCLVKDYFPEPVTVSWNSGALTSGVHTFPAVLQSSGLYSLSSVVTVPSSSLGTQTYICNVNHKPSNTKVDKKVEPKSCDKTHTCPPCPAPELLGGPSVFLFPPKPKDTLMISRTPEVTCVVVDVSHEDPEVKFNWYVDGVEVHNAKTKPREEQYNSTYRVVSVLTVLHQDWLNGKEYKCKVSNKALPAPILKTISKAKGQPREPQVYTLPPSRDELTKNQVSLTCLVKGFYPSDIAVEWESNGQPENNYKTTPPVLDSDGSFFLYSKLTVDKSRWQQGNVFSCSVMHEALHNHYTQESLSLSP
light: B1 light
notes: also called Ho Ab E333_08L
B23: GpH7-A5/GpH7-B3 variant N325_14T/GpL16-k0 (antibody, human IgG1, kappa)
heavy 1: not shown
heavy 2: not shown
light: B1 light
notes: also called He Ab N325_14T
B24: GpH7-B3 variant A327_10E/GpL16-k0 (antibody, human IgG1, kappa)
heavy: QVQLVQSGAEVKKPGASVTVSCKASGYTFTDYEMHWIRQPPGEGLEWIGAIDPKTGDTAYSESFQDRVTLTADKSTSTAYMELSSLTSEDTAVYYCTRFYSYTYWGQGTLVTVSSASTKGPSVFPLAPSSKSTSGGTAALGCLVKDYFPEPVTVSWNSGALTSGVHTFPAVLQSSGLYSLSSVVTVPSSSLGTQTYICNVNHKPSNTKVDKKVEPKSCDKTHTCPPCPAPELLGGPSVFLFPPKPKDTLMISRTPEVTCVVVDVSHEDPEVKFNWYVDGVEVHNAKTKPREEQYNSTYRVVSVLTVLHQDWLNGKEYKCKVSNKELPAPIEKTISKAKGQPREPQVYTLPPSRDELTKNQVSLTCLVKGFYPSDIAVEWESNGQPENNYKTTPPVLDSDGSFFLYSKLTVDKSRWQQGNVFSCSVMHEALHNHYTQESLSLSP
light: B1 light
notes: also called Ho Ab A327_10E
B25: GpH7-B3 variant E333_05P/GpL16-k0 (antibody, human IgG1, kappa)
heavy: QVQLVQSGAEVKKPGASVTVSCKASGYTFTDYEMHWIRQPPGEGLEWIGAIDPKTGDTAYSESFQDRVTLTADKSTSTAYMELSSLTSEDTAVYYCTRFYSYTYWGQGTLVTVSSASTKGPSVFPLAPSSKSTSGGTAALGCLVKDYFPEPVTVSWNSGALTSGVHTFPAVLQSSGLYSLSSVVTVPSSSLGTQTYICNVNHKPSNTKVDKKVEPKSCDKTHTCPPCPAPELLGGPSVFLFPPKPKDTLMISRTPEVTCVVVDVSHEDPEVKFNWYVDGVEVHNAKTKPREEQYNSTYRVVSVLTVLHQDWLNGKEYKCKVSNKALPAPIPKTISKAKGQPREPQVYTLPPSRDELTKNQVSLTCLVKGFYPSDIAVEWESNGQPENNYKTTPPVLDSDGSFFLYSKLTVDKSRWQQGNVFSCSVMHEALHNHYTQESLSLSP
light: B1 light
notes: also called Ho Ab E333_05P
B26: GpH7-B3 variant A330_19Q/GpL16-k0 (antibody, human IgG1, kappa)
heavy: not shown
light: B1 light
notes: also called Ho Ab A330_19Q
B27: GpH7-B3 variant G237_13S/GpL16-k0 (antibody, human IgG1, kappa)
heavy: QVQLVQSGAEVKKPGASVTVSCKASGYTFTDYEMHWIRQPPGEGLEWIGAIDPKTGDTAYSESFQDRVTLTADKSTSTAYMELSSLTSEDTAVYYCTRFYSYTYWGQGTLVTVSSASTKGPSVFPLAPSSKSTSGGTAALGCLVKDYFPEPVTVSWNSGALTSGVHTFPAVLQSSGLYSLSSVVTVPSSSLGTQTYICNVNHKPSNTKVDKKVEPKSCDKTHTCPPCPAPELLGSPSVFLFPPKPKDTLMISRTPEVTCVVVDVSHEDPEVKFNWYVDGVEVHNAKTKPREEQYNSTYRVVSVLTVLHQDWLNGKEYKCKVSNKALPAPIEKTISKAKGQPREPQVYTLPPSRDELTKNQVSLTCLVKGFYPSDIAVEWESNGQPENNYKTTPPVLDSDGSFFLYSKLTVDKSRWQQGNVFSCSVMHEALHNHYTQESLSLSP
light: B1 light
notes: also called Ho Ab G237_13S

Columns and labels:
[1] = molecular target: T1, FcγRIIa R; assay: SPR Biacore; vs GpH7-B3/GpL16-k0 =100
Protocol: Analysis of interaction between objective antibody and the FcγR was carried out using Biacore T100 (GE Healthcare). HBS-EP+ (GE Healthcare) was used as the running buffer, and the measurement temperature was set to 25° C. Chips produced by immobilizing the antigen peptide by the amine coupling method to a Series S Sencor Chip CM5 (GE Healthcare), or alternatively, chips produced by allowing preliminarily biotinylated antigen peptides to interact with and immobilize onto a Series S Sensor Chip SA (certified) (GE Healthcare) were used. Antibodies of interest were captured onto an antigen peptide-immobilized chip, and allowed to interact to each FcγR diluted with running buffer. To regenerate and repeatedly use the chip, the antibodies captured on the chip were washed off by reacting 10 mM glycine-HCl, pH 1.5.
The FcγR-binding activity of each antibody was assessed primarily using as an indicator the FcγR-binding activity and dissociation constant for FcγR.

[2] = molecular target: T1, FcγRIIa R; assay: SPR Biacore; vs GpH7-A5/GpH7-B3/GpL16-k0 =100

Binder | Ho/Con_2aR [1] | He/Con_2aR [2]
B1 | 124 % of control | –
B2 | – | 105 % of control
B3 | 84 % of control | –
B4 | 55.3 % of control | –
B5 | – | 116 % of control
B6 | 56.6 % of control | –
B7 | 73.1 % of control | –
B8 | – | 174 % of control
B9 | – | 107 % of control
B10 | – | 116 % of control
B11 | – | 111 % of control
B12 | 106 % of control | –
B13 | – | 135 % of control
B14 | 92.4 % of control | –
B15 | – | 122 % of control
B16 | – | 119 % of control
B17 | 73.6 % of control | –
B18 | – | 117 % of control
B19 | 87.5 % of control | –
B20 | – | 144 % of control
B21 | 80 % of control | –
B22 | 97.1 % of control | –
B23 | – | 105 % of control
B24 | 104 % of control | –
B25 | 99.9 % of control | –
B26 | 99.1 % of control | –
B27 | 44.4 % of control | –
